In assay [1] the target is T1, human calcitonin receptor (human, UniProt P30988 25-474).
T1 construct: whole, on cells; Assayed as cell membranes of BHK tk'ts 13 cells stably transfected with the human calcitonin receptor (Assay VII); also called hCTR; hCT
T1 sequence (looked up): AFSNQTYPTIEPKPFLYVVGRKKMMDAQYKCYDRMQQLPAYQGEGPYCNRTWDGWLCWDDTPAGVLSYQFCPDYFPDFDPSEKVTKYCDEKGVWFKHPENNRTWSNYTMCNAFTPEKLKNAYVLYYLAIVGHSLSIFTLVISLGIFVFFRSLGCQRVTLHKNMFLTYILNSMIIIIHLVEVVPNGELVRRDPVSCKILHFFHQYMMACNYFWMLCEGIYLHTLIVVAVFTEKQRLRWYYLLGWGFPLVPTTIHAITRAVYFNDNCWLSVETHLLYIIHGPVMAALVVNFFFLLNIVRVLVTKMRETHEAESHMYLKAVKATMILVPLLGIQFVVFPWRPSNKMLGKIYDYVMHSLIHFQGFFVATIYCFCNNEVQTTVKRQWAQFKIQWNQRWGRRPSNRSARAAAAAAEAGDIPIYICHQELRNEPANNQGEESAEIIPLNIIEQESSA
The experiment in a line: IC50 at hCTR divided by IC50 at hAmylin-R (SPA competition assays V and VII). The method in brief:
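Competition binding by SPA uses membrane preparations (35 ng/μL final) in pH 7.4 Hepes buffer with 1 mM CaCl2 and 5 mM MgCl₂. Incubation lasts 120 min at 25° C, and IC₅₀ comes from one-site fitting.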

Assay [2] concerns the target T1, human calcitonin receptor. As to the kind of experiment: SPA competition vs 125I-calcitonin, membranes of BHK cells with human calcitonin receptor (Assay VII). The method in brief: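 BHK hCTR membranes 35 ng/μL + SPA beads 0.05 mg/well; buffer 50 mM Hepes pH 7.4, 1 mM CaCl2, 5 mM MgCl₂, 0.1% OA, 0.02% Tween20. 120 min, 25° C., shaking. Scintillation count; IC50 by one-site binding competition.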

Numbered stars: 1 amine (or outer) side, 2 acyl side, 3 side chain; on linkers, the order of the positions; unused ones are H or OH. Bridge positions count the residues as written; N and C are the ends. Side chains are listed from the residue outwards. Ends that are not written are not given here. * marks the point of attachment. C20 diacid = O=C(O)CCCCCCCCCCCCCCCCCCC(=O)*; γGlu = O=C(O)[C@H](CCC(=O)[*:2])N[*:1]; AEEA = NCCOCCOCC(=O)O

One may read the IC50 as the midpoint of a concentration-inhibition curve.

B1: N^ε1-[2-[2-[2-[[(4S)-4-carboxy-4-(19-carboxynonadecanoylamino)butanoyl]amino]ethoxy]ethoxy]acetyl]-[Arg17,Pro21,Pro27,Pro29,Pro31]-h-amylin (peptide)
peptide: K([AEEA-γGlu-C20 diacid])CNTATCATQRLANFLRHSSPNFGAIPSPTPVGSNTY-NH2
modifications: disulfide 2-7; N-terminus assumed
SMILES: CC[C@H](C)[C@H](NC(=O)[C@H](C)NC(=O)CNC(=O)[C@H](Cc1ccccc1)NC(=O)[C@H](CC(N)=O)NC(=O)[C@@H]1CCCN1C(=O)[C@H](CO)NC(=O)[C@H](CO)NC(=O)[C@H](Cc1c[nH]cn1)NC(=O)[C@H](CCCNC(=N)N)NC(=O)[C@H](CC(C)C)NC(=O)[C@H](Cc1ccccc1)NC(=O)[C@H](CC(N)=O)NC(=O)[C@H](C)NC(=O)[C@H](CC(C)C)NC(=O)[C@H](CCCNC(=N)N)NC(=O)[C@H](CCC(N)=O)NC(=O)[C@@H](NC(=O)[C@H](C)NC(=O)[C@@H]1CSSC[C@H](NC(=O)[C@@H](N)CCCCNC(=O)COCCOCCNC(=O)CC[C@H](NC(=O)CCCCCCCCCCCCCCCCCCC(=O)O)C(=O)O)C(=O)N[C@@H](CC(N)=O)C(=O)N[C@@H]([C@@H](C)O)C(=O)N[C@@H](C)C(=O)N[C@@H]([C@@H](C)O)C(=O)N1)[C@@H](C)O)C(=O)N1CCC[C@H]1C(=O)N[C@@H](CO)C(=O)N1CCC[C@H]1C(=O)N[C@H](C(=O)N1CCC[C@H]1C(=O)N[C@H](C(=O)NCC(=O)N[C@@H](CO)C(=O)N[C@@H](CC(N)=O)C(=O)N[C@H](C(=O)N[C@@H](Cc1ccc(O)cc1)C(N)=O)[C@@H](C)O)C(C)C)[C@@H](C)O
notes: also called compound 54
With B1, the “Ratio hCT/hAmylin binding” value in assay [1] turned out to be 146. The IC50 in assay [2] turned out to be 4.38 nM.

B2: N^ε1-[2-[2-[2-[[(4S)-4-carboxy-4-(19-carboxynonadecanoylamino)butanoyl]amino]ethoxy]ethoxy]acetyl]-[Arg17,Pro21,Pro27,Pro34,His35]-h-amylin (peptide)
peptide: K([AEEA-γGlu-C20 diacid])CNTATCATQRLANFLRHSSPNFGAIPSSTNVGPHTY-NH2
modifications: disulfide 2-7; N-terminus assumed
SMILES: CC[C@H](C)[C@H](NC(=O)[C@H](C)NC(=O)CNC(=O)[C@H](Cc1ccccc1)NC(=O)[C@H](CC(N)=O)NC(=O)[C@@H]1CCCN1C(=O)[C@H](CO)NC(=O)[C@H](CO)NC(=O)[C@H](Cc1c[nH]cn1)NC(=O)[C@H](CCCNC(=N)N)NC(=O)[C@H](CC(C)C)NC(=O)[C@H](Cc1ccccc1)NC(=O)[C@H](CC(N)=O)NC(=O)[C@H](C)NC(=O)[C@H](CC(C)C)NC(=O)[C@H](CCCNC(=N)N)NC(=O)[C@H](CCC(N)=O)NC(=O)[C@@H](NC(=O)[C@H](C)NC(=O)[C@@H]1CSSC[C@H](NC(=O)[C@@H](N)CCCCNC(=O)COCCOCCNC(=O)CC[C@H](NC(=O)CCCCCCCCCCCCCCCCCCC(=O)O)C(=O)O)C(=O)N[C@@H](CC(N)=O)C(=O)N[C@@H]([C@@H](C)O)C(=O)N[C@@H](C)C(=O)N[C@@H]([C@@H](C)O)C(=O)N1)[C@@H](C)O)C(=O)N1CCC[C@H]1C(=O)N[C@@H](CO)C(=O)N[C@@H](CO)C(=O)N[C@H](C(=O)N[C@@H](CC(N)=O)C(=O)N[C@H](C(=O)NCC(=O)N1CCC[C@H]1C(=O)N[C@@H](Cc1c[nH]cn1)C(=O)N[C@H](C(=O)N[C@@H](Cc1ccc(O)cc1)C(N)=O)[C@@H](C)O)C(C)C)[C@@H](C)O
notes: also called compound 58
B2: the “Ratio hCT/hAmylin binding” value in assay [1] came out at 109. Also, the IC50 in assay [2] came out at 9.63 nM.

B3: N^ε1-[2-[2-[2-[[(4S)-4-carboxy-4-(19-carboxynonadecanoylamino)butanoyl]amino]ethoxy]ethoxy]acetyl]-[Arg17,Pro21,Pro27,Pro34]-h-amylin (peptide)
peptide: K([AEEA-γGlu-C20 diacid])CNTATCATQRLANFLRHSSPNFGAIPSSTNVGPNTY-NH2
modifications: disulfide 2-7; N-terminus assumed
SMILES: CC[C@H](C)[C@H](NC(=O)[C@H](C)NC(=O)CNC(=O)[C@H](Cc1ccccc1)NC(=O)[C@H](CC(N)=O)NC(=O)[C@@H]1CCCN1C(=O)[C@H](CO)NC(=O)[C@H](CO)NC(=O)[C@H](Cc1c[nH]cn1)NC(=O)[C@H](CCCNC(=N)N)NC(=O)[C@H](CC(C)C)NC(=O)[C@H](Cc1ccccc1)NC(=O)[C@H](CC(N)=O)NC(=O)[C@H](C)NC(=O)[C@H](CC(C)C)NC(=O)[C@H](CCCNC(=N)N)NC(=O)[C@H](CCC(N)=O)NC(=O)[C@@H](NC(=O)[C@H](C)NC(=O)[C@@H]1CSSC[C@H](NC(=O)[C@@H](N)CCCCNC(=O)COCCOCCNC(=O)CC[C@H](NC(=O)CCCCCCCCCCCCCCCCCCC(=O)O)C(=O)O)C(=O)N[C@@H](CC(N)=O)C(=O)N[C@@H]([C@@H](C)O)C(=O)N[C@@H](C)C(=O)N[C@@H]([C@@H](C)O)C(=O)N1)[C@@H](C)O)C(=O)N1CCC[C@H]1C(=O)N[C@@H](CO)C(=O)N[C@@H](CO)C(=O)N[C@H](C(=O)N[C@@H](CC(N)=O)C(=O)N[C@H](C(=O)NCC(=O)N1CCC[C@H]1C(=O)N[C@@H](CC(N)=O)C(=O)N[C@H](C(=O)N[C@@H](Cc1ccc(O)cc1)C(N)=O)[C@@H](C)O)C(C)C)[C@@H](C)O
notes: also called compound 50
For the molecule B3, the “Ratio hCT/hAmylin binding” value in assay [1] was determined as 36. For the same molecule, the IC50 in assay [2] was 1.38 nM.

B4: N^ε1-[2-[2-[2-[[(4S)-4-carboxy-4-(19-carboxynonadecanoylamino)butanoyl]amino]ethoxy]ethoxy]acetyl]-[Gly14,Arg17,Pro21,Pro27,Pro31]-h-amylin (peptide)
peptide: K([AEEA-γGlu-C20 diacid])CNTATCATQRLAGFLRHSSPNFGAIPSSTPVGSNTY-NH2
modifications: disulfide 2-7; N-terminus assumed
SMILES: CC[C@H](C)[C@H](NC(=O)[C@H](C)NC(=O)CNC(=O)[C@H](Cc1ccccc1)NC(=O)[C@H](CC(N)=O)NC(=O)[C@@H]1CCCN1C(=O)[C@H](CO)NC(=O)[C@H](CO)NC(=O)[C@H](Cc1c[nH]cn1)NC(=O)[C@H](CCCNC(=N)N)NC(=O)[C@H](CC(C)C)NC(=O)[C@H](Cc1ccccc1)NC(=O)CNC(=O)[C@H](C)NC(=O)[C@H](CC(C)C)NC(=O)[C@H](CCCNC(=N)N)NC(=O)[C@H](CCC(N)=O)NC(=O)[C@@H](NC(=O)[C@H](C)NC(=O)[C@@H]1CSSC[C@H](NC(=O)[C@@H](N)CCCCNC(=O)COCCOCCNC(=O)CC[C@H](NC(=O)CCCCCCCCCCCCCCCCCCC(=O)O)C(=O)O)C(=O)N[C@@H](CC(N)=O)C(=O)N[C@@H]([C@@H](C)O)C(=O)N[C@@H](C)C(=O)N[C@@H]([C@@H](C)O)C(=O)N1)[C@@H](C)O)C(=O)N1CCC[C@H]1C(=O)N[C@@H](CO)C(=O)N[C@@H](CO)C(=O)N[C@H](C(=O)N1CCC[C@H]1C(=O)N[C@H](C(=O)NCC(=O)N[C@@H](CO)C(=O)N[C@@H](CC(N)=O)C(=O)N[C@H](C(=O)N[C@@H](Cc1ccc(O)cc1)C(N)=O)[C@@H](C)O)C(C)C)[C@@H](C)O
notes: also called compound 71
B4: in assay [1], the “Ratio hCT/hAmylin binding” value amounted to 32. In addition, the IC50 in assay [2] worked out at 1.53 nM.

B5: N^ε1-[2-[2-[2-[[(4S)-4-carboxy-4-(19-carboxynonadecanoylamino)butanoyl]amino]ethoxy]ethoxy]acetyl]-[Arg17,Pro21,Pro27,Pro29,Pro34]-h-amylin (peptide)
peptide: K([AEEA-γGlu-C20 diacid])CNTATCATQRLANFLRHSSPNFGAIPSPTNVGPNTY-NH2
modifications: disulfide 2-7; N-terminus assumed
SMILES: CC[C@H](C)[C@H](NC(=O)[C@H](C)NC(=O)CNC(=O)[C@H](Cc1ccccc1)NC(=O)[C@H](CC(N)=O)NC(=O)[C@@H]1CCCN1C(=O)[C@H](CO)NC(=O)[C@H](CO)NC(=O)[C@H](Cc1c[nH]cn1)NC(=O)[C@H](CCCNC(=N)N)NC(=O)[C@H](CC(C)C)NC(=O)[C@H](Cc1ccccc1)NC(=O)[C@H](CC(N)=O)NC(=O)[C@H](C)NC(=O)[C@H](CC(C)C)NC(=O)[C@H](CCCNC(=N)N)NC(=O)[C@H](CCC(N)=O)NC(=O)[C@@H](NC(=O)[C@H](C)NC(=O)[C@@H]1CSSC[C@H](NC(=O)[C@@H](N)CCCCNC(=O)COCCOCCNC(=O)CC[C@H](NC(=O)CCCCCCCCCCCCCCCCCCC(=O)O)C(=O)O)C(=O)N[C@@H](CC(N)=O)C(=O)N[C@@H]([C@@H](C)O)C(=O)N[C@@H](C)C(=O)N[C@@H]([C@@H](C)O)C(=O)N1)[C@@H](C)O)C(=O)N1CCC[C@H]1C(=O)N[C@@H](CO)C(=O)N1CCC[C@H]1C(=O)N[C@H](C(=O)N[C@@H](CC(N)=O)C(=O)N[C@H](C(=O)NCC(=O)N1CCC[C@H]1C(=O)N[C@@H](CC(N)=O)C(=O)N[C@H](C(=O)N[C@@H](Cc1ccc(O)cc1)C(N)=O)[C@@H](C)O)C(C)C)[C@@H](C)O
notes: also called compound 56
Consider B5, for which the “Ratio hCT/hAmylin binding” value in assay [1] was 42.6. Besides, in assay [2], the IC50 amounted to 2.09 nM.

B6: N^ε1-[2-[2-[2-[[(4S)-4-carboxy-4-(19-carboxynonadecanoylamino)butanoyl]amino]ethoxy]ethoxy]acetyl]-[Arg17,Pro21,Pro27,Pro31,His35]-h-amylin (peptide)
peptide: K([AEEA-γGlu-C20 diacid])CNTATCATQRLANFLRHSSPNFGAIPSSTPVGSHTY-NH2
modifications: disulfide 2-7; N-terminus assumed
SMILES: CC[C@H](C)[C@H](NC(=O)[C@H](C)NC(=O)CNC(=O)[C@H](Cc1ccccc1)NC(=O)[C@H](CC(N)=O)NC(=O)[C@@H]1CCCN1C(=O)[C@H](CO)NC(=O)[C@H](CO)NC(=O)[C@H](Cc1c[nH]cn1)NC(=O)[C@H](CCCNC(=N)N)NC(=O)[C@H](CC(C)C)NC(=O)[C@H](Cc1ccccc1)NC(=O)[C@H](CC(N)=O)NC(=O)[C@H](C)NC(=O)[C@H](CC(C)C)NC(=O)[C@H](CCCNC(=N)N)NC(=O)[C@H](CCC(N)=O)NC(=O)[C@@H](NC(=O)[C@H](C)NC(=O)[C@@H]1CSSC[C@H](NC(=O)[C@@H](N)CCCCNC(=O)COCCOCCNC(=O)CC[C@H](NC(=O)CCCCCCCCCCCCCCCCCCC(=O)O)C(=O)O)C(=O)N[C@@H](CC(N)=O)C(=O)N[C@@H]([C@@H](C)O)C(=O)N[C@@H](C)C(=O)N[C@@H]([C@@H](C)O)C(=O)N1)[C@@H](C)O)C(=O)N1CCC[C@H]1C(=O)N[C@@H](CO)C(=O)N[C@@H](CO)C(=O)N[C@H](C(=O)N1CCC[C@H]1C(=O)N[C@H](C(=O)NCC(=O)N[C@@H](CO)C(=O)N[C@@H](Cc1c[nH]cn1)C(=O)N[C@H](C(=O)N[C@@H](Cc1ccc(O)cc1)C(N)=O)[C@@H](C)O)C(C)C)[C@@H](C)O
notes: also called compound 57
In the case of B6, the “Ratio hCT/hAmylin binding” value in assay [1] was found to be 133. In addition, in assay [2], the IC50 came to 15.3 nM.

These data come from patent US20140087995A1 (published 2014).
